What was measured:
[1] = target: T1, human Fc tagged human Lag3 extra cellular domain (human, UniProt P18627 29-450, biotinylated in the epitope binning, the SA CAP SPR and the FACS competition assay); test: FACS, inhibition of biotinylated Lag3:Fc binding to MHC-II on A375 cells (competitor MHC-II); antibody 10 µg/ml
T1 construct: In-house fusion; also called huLag3-Fc; biotinylated, huFc-tagged huLag3; not shown: human Fc tag
T1 sequence: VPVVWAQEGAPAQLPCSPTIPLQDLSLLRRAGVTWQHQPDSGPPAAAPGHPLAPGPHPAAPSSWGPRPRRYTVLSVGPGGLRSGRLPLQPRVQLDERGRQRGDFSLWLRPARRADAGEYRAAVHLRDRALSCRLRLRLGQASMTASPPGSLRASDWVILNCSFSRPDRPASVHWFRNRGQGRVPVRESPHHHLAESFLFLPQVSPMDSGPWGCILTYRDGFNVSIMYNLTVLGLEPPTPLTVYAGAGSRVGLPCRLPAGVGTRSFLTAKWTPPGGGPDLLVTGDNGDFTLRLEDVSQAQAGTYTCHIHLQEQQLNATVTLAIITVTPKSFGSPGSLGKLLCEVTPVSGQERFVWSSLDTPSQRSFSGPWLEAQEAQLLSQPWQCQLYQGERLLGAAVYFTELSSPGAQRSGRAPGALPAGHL
Method: This analysis was studied in a FACS competition experiment: A375 cells (ATCC, #CRL-1619) were cultured for 2-3 passages in EM Eagle's medium supplemented with EBSS (PAN, cat.no. #P04-00509), 10% FBS, 2 mM L-Glutamin, 1×NEAA and 1× Sodium Pyruvate. All antibodies, were diluted in FACS buffer to a final concentration of 20 μg/ml in 25 μl (in 96well U-bottom plates). […] A375 cells were washed with PBS and adjusted to 3×10⁶ cells/ml in PBS. 100 μl were seeded per well in a 96well V-bottom plate. Plates were centrifuged and supernatant was removed. […] After this, cells were washed with 200 μl FACS buffer. […] After staining, cells were again washed and then transferred in 150 μl FACS buffer (PBS/2% FBS) to a U-bottom plate and analyzed on a FACS Canto-II using an HTS module.
All antibodies were used at 10 μg/ml final concentration.

[2] = target: T2, LAG3 on cells (recombinant CHO cells expressing Lag3) (human, UniProt P18627 29-525); test: cell ELISA on recombinant CHO cells expressing Lag3
T2 construct: The cell ELISA paragraphs say only 'Lag3'; also called CHO-LAG3; Lag3 cells
T2 sequence: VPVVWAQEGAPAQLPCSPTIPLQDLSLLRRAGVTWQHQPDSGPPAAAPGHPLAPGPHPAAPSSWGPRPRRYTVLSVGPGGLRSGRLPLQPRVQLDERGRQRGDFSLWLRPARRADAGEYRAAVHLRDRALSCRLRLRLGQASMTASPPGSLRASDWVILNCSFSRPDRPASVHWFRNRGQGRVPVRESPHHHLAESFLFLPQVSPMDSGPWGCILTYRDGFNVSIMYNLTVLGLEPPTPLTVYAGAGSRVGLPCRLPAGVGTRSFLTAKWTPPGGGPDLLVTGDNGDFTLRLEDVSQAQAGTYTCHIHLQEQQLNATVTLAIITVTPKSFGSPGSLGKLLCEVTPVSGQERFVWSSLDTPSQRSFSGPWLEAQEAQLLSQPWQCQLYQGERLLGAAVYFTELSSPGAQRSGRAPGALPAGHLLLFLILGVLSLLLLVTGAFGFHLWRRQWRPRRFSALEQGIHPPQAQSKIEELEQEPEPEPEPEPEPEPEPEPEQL
Method: After washing (1×90 μl in PBST) cells were fixed by addition of 30 μl/well glutaraldehyde to a final concentration of 0.05% (Sigma Cat.No: G5882), 10 min at room temperature. After washing (3×90 μl/well with PBST-buffer) 25 μl/well goat anti-Human Ig κ chain antibody-HRP conjugate (Milipore, AP502P) was added in a 1:1000 dilution and incubated at RT for 1 h. After washing (3×90 μl/well with PBST-buffer) 25 μl/well TMB substrate (Roche, 11835033001) was added and incubated for 6-10 min. Measurement took place on a Tecan Safire 2 instrument at 370/492 nm.

biotinylated-Lag3 [3] = target: T3, biotinylated-Lag3 (UniProt P18627 23-450, limits assumed, biotinylated); test: ELISA, inhibition of biotinylated-Lag3 binding to MHC-II on A375 cells (competitor MHC-II); first of two numbers; first of two series in the cell
T3 construct: Probably a human LAG3 ECD construct; also called Lag3 (MHCII/ELISA)
T3 sequence (looked up): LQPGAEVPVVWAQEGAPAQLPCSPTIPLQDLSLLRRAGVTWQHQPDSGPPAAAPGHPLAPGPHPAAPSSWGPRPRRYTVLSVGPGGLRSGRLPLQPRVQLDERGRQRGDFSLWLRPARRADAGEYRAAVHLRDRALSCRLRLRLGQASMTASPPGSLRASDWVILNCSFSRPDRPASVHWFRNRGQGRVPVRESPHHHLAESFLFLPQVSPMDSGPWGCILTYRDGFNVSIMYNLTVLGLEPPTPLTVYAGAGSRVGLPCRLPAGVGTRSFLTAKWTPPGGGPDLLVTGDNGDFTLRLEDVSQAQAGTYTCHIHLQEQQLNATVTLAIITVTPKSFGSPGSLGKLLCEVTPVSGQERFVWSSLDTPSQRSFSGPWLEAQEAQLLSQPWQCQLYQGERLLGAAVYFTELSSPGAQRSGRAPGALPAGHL

cynomolgus LAG3 on cells [4] = target: T4, cynomolgus LAG3 on cells (cynomolgus); test: flow cytometry on activated cynomolgus PBMC, 10 µg/ml (only 2nd Ab (hu): 7.62)
T4 construct: whole, on cells; also called cyno-LAG-3; cynoLAG3
Method: Thus, cynomolgus peripheral blood mononuclear cells (PBMC) were prepared from fresh cynomolgus blood and were then activated by CD3/CD28 pre-treatment (1 μg/ml) for 2-3 days. […] After staining, cells were washed two times with PBS/2% FCS and analyzed on a FACS Fortessa (BD).

cynomolgus LAG3 on cells [5] = target: T4, cynomolgus LAG3 on cells; test: flow cytometry on HEK293F cells transfected with cyno-LAG-3, antibody 10 µg/ml
Method: 1.5×10⁵ cells/well were seeded into 96-well plates. […] HEK cells were incubated with indicated antibodies for 45 min on ice, washed twice with 200 μl ice-cold PBS buffer containing 2% FBS, before secondary antibody (APC-labelled goat anti-human IgG-kappa, Invitrogen, cat.no. #MH10515) was added (1:50 diluted in FACS-Puffer/well) and further incubated for 30 min on ice. Cells were again washed twice with 200 μl ice-cold PBS/2% FBS buffer before samples were finally resuspended in 150 μl FACS buffer and binding was measured on FACS CANTO-II HTS Module.

[6] = target: T2, LAG3 on cells (recombinant CHO cells …); test: cell-based or functional assay
biotinylated-Lag3 [7] = target: T3, biotinylated-Lag3; test: ELISA, inhibition of biotinylated-Lag3 binding to MHC-II on A375 cells (competitor MHC-II); second of two numbers; second of two series in the cell (the series of '/0.4' and '/1.0')

B1: Reference LAG3 antibody MDX25F7 (antibody, V domains shown)
VH: QVQLQQWGAGLLKPSETLSLTCAVYGGSFSDYYWNWIRQPPGKGLEWIGEINHNGNTNSNPSLKSRVTLSLDTSKNQFSLKLRSVTAADTAVYYCAFGYSDYEYNWFDPWGQGTLVTVSS
VL: EIVLTQSPATLSLSPGERATLSCRASQSISSYLAWYQQKPGQAPRLLIYDASNRATGIPARFSGSGSGTDFTLTISSLEPEDFAVYYCQQRSNWPLTFGQGTNLEIK
notes: also called MDX-25F7 (25F7); Medarex 25F7
% Inhibition [1]: 70%
CHO-cell ELISA inflexion point [2]: 75 ng/mL
IC50 (biotinylated-Lag3 [3]): 0.8 nM
% positive cyno cells (PBLs) after CD3/CD28 activation (cynomolgus LAG3 on cells [4]): 22.1%
% pos. (cynomolgus LAG3 on cells [5]): 41.2%
GeoMean (cynomolgus LAG3 on cells [5]): 3060
EC50 [nM] in Jurkat LAG3 + SED + Raji (NFAT luciferase), 2nd assay [6]: 8.6 nM
IC50 (biotinylated-Lag3 [7]): 0.6 nM

— patent publication US20220387586A1 (Hoffmann-La Roche, published 2022)
